# Assay results published in patent publication US20170355766A1 (Xencor, published 2017).
# T1: FcγRIIaR (human, UniProt P12318)
# T1 construct: recombinant receptor protein with 6xHis and GST tags; also called R131 FcγRIIa
# T1 sequence (receptor, looked up): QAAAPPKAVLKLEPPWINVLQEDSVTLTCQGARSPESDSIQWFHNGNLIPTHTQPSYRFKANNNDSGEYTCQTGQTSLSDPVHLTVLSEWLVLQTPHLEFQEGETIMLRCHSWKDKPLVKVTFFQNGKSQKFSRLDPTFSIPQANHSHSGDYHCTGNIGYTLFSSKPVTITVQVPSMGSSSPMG
# T2: human FcγRIIb receptor protein (R&D Systems) (human, UniProt P31994 46-217)
# T2 construct: Analyte injected over antibodies captured on a protein A/G chip (Biacore); also called CD32b
# T2 sequence (looked up): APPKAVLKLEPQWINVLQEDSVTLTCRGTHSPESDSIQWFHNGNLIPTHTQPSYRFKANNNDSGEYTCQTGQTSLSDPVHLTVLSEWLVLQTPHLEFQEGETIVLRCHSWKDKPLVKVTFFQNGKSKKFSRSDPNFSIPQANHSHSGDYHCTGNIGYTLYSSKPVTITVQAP
# B1: A327G (antibody, human IgG1, kappa)
# heavy: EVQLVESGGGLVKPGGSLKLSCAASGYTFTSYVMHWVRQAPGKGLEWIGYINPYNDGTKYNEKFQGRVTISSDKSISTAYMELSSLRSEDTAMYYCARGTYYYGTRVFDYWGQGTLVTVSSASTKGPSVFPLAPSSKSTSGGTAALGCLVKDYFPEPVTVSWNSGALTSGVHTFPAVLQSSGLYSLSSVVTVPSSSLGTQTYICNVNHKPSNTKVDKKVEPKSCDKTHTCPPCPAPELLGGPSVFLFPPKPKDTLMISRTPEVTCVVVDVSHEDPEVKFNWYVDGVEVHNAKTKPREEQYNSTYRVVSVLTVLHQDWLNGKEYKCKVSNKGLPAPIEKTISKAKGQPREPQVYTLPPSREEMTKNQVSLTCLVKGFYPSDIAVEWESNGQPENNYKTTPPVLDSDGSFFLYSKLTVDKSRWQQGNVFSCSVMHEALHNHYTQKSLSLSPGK
# light: DIVMTQSPATLSLSPGERATLSCRSSKSLQNVNGNTYLYWFQQKPGQSPQLLIYRMSNLNSGVPDRFSGSGSGTEFTLTISSLEPEDFAVYYCMQHLEYPITFGAGTKLEIKRTVAAPSVFIFPPSDEQLKSGTASVVCLLNNFYPREAKVQWKVDNALQSGNSQESVTEQDSKDSTYSLSSTLTLSKADYEKHKVYACEVTHQGLSSPVTKSFNRGEC
# notes: HuAM4G7 IgG1 Fc variant
# B2: P329E (antibody, human IgG1, kappa)
# heavy: not shown
# light: B1 light
# notes: HuAM4G7 IgG1 Fc variant
# B3: G236P (antibody, human IgG1, kappa)
# heavy: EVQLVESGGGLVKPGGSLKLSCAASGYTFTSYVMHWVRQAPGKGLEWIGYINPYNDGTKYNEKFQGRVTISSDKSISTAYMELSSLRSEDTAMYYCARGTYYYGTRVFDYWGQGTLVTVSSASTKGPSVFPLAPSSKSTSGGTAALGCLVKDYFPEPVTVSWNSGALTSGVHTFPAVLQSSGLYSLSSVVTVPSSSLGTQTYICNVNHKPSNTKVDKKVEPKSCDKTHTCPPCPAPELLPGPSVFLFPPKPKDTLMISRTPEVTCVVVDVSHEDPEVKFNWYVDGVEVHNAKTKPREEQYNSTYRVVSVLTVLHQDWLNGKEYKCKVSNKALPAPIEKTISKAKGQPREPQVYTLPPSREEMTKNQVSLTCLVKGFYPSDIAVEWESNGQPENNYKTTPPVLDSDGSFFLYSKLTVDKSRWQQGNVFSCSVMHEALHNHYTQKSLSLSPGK
# light: B1 light
# notes: HuAM4G7 IgG1 Fc variant
# B4: S267E/L328I (antibody, human IgG1, kappa)
# heavy: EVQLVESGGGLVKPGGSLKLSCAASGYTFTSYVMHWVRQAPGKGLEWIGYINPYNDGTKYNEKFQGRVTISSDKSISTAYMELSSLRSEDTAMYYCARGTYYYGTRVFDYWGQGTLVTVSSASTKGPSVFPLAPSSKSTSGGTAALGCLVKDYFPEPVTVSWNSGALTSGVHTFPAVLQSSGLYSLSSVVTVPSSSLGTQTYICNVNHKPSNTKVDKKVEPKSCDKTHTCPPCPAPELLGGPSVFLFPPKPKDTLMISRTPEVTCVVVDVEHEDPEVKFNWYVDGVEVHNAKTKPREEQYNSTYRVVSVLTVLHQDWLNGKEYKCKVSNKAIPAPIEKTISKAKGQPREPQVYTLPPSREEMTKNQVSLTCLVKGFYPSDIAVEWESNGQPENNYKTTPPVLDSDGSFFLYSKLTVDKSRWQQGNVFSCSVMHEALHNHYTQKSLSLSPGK
# light: B1 light
# notes: HuAM4G7 IgG1 Fc variant
# B5: G236E/S267E (antibody, human IgG1, kappa)
# heavy: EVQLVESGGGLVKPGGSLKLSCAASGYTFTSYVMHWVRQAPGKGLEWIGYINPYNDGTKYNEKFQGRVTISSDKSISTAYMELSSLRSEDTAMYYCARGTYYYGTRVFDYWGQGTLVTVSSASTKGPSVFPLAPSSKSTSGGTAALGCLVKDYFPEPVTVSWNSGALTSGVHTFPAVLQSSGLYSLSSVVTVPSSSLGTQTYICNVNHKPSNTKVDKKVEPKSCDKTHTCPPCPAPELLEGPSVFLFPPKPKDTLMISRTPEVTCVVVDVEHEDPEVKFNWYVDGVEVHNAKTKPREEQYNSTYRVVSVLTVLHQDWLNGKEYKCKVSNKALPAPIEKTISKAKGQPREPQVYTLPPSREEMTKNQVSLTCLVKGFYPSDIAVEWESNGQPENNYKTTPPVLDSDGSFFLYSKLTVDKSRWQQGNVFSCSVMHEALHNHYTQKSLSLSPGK
# light: B1 light
# notes: HuAM4G7 IgG1 Fc variant
# B6: L234D/G236N/S267E (antibody, human IgG1, kappa)
# heavy: EVQLVESGGGLVKPGGSLKLSCAASGYTFTSYVMHWVRQAPGKGLEWIGYINPYNDGTKYNEKFQGRVTISSDKSISTAYMELSSLRSEDTAMYYCARGTYYYGTRVFDYWGQGTLVTVSSASTKGPSVFPLAPSSKSTSGGTAALGCLVKDYFPEPVTVSWNSGALTSGVHTFPAVLQSSGLYSLSSVVTVPSSSLGTQTYICNVNHKPSNTKVDKKVEPKSCDKTHTCPPCPAPEDLNGPSVFLFPPKPKDTLMISRTPEVTCVVVDVEHEDPEVKFNWYVDGVEVHNAKTKPREEQYNSTYRVVSVLTVLHQDWLNGKEYKCKVSNKALPAPIEKTISKAKGQPREPQVYTLPPSREEMTKNQVSLTCLVKGFYPSDIAVEWESNGQPENNYKTTPPVLDSDGSFFLYSKLTVDKSRWQQGNVFSCSVMHEALHNHYTQKSLSLSPGK
# light: B1 light
# notes: HuAM4G7 IgG1 Fc variant
# B7: L235R (antibody, human IgG1, kappa)
# heavy: not shown
# light: B1 light
# notes: HuAM4G7 IgG1 Fc variant
# B8: G237Q (antibody, human IgG1, kappa)
# heavy: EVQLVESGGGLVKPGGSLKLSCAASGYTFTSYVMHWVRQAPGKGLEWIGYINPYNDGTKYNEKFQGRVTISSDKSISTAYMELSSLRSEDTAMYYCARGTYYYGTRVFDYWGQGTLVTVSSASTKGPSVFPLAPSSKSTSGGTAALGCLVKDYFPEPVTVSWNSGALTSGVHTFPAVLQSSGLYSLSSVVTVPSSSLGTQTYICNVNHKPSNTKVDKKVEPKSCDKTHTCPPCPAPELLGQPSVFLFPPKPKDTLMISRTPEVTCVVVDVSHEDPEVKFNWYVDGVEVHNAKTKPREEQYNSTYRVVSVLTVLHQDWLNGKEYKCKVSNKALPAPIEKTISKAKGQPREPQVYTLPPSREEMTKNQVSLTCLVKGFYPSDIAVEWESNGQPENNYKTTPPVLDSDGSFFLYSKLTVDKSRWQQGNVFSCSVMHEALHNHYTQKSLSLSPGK
# light: B1 light
# notes: HuAM4G7 IgG1 Fc variant
# B9: S267E/N325L (antibody, human IgG1, kappa)
# heavy: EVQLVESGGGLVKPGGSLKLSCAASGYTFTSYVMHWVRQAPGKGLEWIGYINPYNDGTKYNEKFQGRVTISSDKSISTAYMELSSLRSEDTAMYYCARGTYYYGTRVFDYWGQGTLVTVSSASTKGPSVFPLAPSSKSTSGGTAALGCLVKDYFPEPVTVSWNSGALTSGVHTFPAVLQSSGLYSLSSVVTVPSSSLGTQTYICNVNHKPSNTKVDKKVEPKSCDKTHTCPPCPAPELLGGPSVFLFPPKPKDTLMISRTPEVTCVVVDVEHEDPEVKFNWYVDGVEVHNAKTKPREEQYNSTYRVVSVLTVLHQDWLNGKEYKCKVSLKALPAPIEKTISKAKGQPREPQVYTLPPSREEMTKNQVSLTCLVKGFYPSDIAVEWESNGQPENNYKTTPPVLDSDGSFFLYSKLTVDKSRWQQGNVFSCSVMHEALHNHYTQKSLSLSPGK
# light: B1 light
# notes: HuAM4G7 IgG1 Fc variant
# B10: L235P (antibody, human IgG1, kappa)
# heavy: not shown
# light: B1 light
# notes: HuAM4G7 IgG1 Fc variant
# B11: G237Y (antibody, human IgG1, kappa)
# heavy: not shown
# light: B1 light
# notes: HuAM4G7 IgG1 Fc variant
# B12: L235H (antibody, human IgG1, kappa)
# heavy: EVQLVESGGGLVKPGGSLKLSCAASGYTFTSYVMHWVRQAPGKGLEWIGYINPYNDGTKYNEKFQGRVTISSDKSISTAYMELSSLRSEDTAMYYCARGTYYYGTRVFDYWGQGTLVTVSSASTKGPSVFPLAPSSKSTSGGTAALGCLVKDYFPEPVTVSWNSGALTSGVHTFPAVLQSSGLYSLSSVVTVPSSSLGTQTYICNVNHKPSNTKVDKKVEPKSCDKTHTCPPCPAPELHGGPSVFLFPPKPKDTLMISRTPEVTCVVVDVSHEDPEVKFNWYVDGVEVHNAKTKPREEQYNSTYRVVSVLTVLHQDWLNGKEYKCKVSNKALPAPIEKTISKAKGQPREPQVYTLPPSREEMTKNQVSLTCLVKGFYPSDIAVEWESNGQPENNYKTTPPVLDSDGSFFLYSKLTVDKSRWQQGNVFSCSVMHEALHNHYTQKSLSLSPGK
# light: B1 light
# notes: HuAM4G7 IgG1 Fc variant
# B13: S298D (antibody, human IgG1, kappa)
# heavy: not shown
# light: B1 light
# notes: HuAM4G7 IgG1 Fc variant
# B14: L234G (antibody, human IgG1, kappa)
# heavy: not shown
# light: B1 light
# notes: HuAM4G7 IgG1 Fc variant
# B15: L234S (antibody, human IgG1, kappa)
# heavy: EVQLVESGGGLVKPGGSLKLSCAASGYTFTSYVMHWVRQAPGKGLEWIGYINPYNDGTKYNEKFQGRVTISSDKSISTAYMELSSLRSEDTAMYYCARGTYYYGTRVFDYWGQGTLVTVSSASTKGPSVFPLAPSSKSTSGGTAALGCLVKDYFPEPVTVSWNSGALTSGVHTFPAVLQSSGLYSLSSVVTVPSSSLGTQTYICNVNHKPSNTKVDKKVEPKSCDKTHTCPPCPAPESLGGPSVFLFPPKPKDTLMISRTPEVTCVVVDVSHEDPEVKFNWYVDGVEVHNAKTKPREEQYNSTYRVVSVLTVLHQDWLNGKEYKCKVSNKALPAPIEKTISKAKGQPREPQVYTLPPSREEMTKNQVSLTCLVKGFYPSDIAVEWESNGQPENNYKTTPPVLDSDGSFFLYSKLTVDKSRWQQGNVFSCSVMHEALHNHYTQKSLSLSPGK
# light: B1 light
# notes: HuAM4G7 IgG1 Fc variant
# B16: L235E (antibody, human IgG1, kappa)
# heavy: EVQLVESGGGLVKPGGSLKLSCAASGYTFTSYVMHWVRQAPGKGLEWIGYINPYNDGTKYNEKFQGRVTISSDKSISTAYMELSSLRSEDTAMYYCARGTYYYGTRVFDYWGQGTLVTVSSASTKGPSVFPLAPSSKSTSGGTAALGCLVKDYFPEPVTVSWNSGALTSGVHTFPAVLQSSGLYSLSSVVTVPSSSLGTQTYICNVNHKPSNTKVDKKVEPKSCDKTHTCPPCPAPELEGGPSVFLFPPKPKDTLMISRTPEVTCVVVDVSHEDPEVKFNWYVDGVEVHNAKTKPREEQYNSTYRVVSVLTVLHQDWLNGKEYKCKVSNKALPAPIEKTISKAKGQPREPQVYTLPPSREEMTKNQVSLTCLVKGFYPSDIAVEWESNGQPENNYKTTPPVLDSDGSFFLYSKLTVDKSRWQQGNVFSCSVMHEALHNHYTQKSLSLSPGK
# light: B1 light
# notes: HuAM4G7 IgG1 Fc variant
# B17: S239Q (antibody, human IgG1, kappa)
# heavy: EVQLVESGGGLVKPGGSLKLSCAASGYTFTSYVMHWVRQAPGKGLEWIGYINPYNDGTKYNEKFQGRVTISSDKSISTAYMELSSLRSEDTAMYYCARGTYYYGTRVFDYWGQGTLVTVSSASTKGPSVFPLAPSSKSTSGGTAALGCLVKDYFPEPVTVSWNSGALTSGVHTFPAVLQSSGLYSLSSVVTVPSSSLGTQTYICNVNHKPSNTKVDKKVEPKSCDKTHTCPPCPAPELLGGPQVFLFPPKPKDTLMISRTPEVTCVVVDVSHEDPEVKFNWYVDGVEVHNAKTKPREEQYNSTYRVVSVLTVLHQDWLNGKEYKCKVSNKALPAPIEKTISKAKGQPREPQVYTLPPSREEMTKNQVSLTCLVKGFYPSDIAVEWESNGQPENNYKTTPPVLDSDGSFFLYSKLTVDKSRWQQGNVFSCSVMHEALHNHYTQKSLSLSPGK
# light: B1 light
# notes: HuAM4G7 IgG1 Fc variant
# B18: S239N (antibody, human IgG1, kappa)
# heavy: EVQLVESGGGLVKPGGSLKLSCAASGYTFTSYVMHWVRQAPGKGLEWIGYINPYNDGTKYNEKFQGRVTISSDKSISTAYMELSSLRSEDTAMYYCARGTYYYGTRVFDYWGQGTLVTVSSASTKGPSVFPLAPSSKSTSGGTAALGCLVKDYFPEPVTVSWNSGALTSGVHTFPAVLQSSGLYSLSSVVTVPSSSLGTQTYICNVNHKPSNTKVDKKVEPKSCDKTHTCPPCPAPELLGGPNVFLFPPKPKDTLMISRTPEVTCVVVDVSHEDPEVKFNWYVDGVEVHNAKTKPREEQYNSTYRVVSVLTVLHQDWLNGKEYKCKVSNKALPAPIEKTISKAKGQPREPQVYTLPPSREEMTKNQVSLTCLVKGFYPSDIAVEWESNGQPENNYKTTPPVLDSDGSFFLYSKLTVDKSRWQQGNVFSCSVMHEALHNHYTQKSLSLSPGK
# light: B1 light
# notes: HuAM4G7 IgG1 Fc variant
# B19: L234I (antibody, human IgG1, kappa)
# heavy: not shown
# light: B1 light
# notes: HuAM4G7 IgG1 Fc variant
# Legend:
# FcγRIIaR = biological target: T1, FcγRIIaR; test: SPR (Biacore)
# [1] = biological target: T2, human FcγRIIb receptor protein (R&D …); test: SPR (Biacore)
binder,measurement,setting,value
B1,Fold FcγRIIaR,FcγRIIaR,0.319 fold
same,Fold FcγRIIb,[1],0.353 fold
B2,Fold FcγRIIaR,FcγRIIaR,0.0859 fold
same,Fold FcγRIIb,[1],0.147 fold
B3,Fold FcγRIIaR,FcγRIIaR,0.0859 fold
same,Fold FcγRIIb,[1],0.147 fold
B4,Fold FcγRIIaR,FcγRIIaR,74 fold
same,Fold FcγRIIb,[1],53.4 fold
B5,Fold FcγRIIaR,FcγRIIaR,36.5 fold
same,Fold FcγRIIb,[1],11.4 fold
B6,Fold FcγRIIaR,FcγRIIaR,0.728 fold
same,Fold FcγRIIb,[1],5.11 fold
B7,Fold FcγRIIaR,FcγRIIaR,1.02 fold
same,Fold FcγRIIb,[1],5.58 fold
B8,Fold FcγRIIaR,FcγRIIaR,0.0859 fold
same,Fold FcγRIIb,[1],0.147 fold
B9,Fold FcγRIIaR,FcγRIIaR,41.5 fold
same,Fold FcγRIIb,[1],31.5 fold
B10,Fold FcγRIIaR,FcγRIIaR,0.122 fold
B11,Fold FcγRIIaR,FcγRIIaR,0.902 fold
same,Fold FcγRIIb,[1],0.33 fold
B12,Fold FcγRIIaR,FcγRIIaR,0.756 fold
same,Fold FcγRIIb,[1],0.734 fold
B13,Fold FcγRIIaR,FcγRIIaR,1.45 fold
same,Fold FcγRIIb,[1],0.797 fold
B14,Fold FcγRIIaR,FcγRIIaR,0.0859 fold
same,Fold FcγRIIb,[1],0.147 fold
B15,Fold FcγRIIaR,FcγRIIaR,0.693 fold
same,Fold FcγRIIb,[1],0.192 fold
B16,Fold FcγRIIaR,FcγRIIaR,0.333 fold
same,Fold FcγRIIb,[1],0.55 fold
B17,Fold FcγRIIaR,FcγRIIaR,0.853 fold
same,Fold FcγRIIb,[1],0.729 fold
B18,Fold FcγRIIaR,FcγRIIaR,0.867 fold
same,Fold FcγRIIb,[1],1.45 fold
B19,Fold FcγRIIaR,FcγRIIaR,0.0554 fold
same,Fold FcγRIIb,[1],0.108 fold
